Experimental findings from patent US12448430B2 (dated 2025) are described below.

The target of assay [1] is T1, Wilms tumor protein 1 (WT1) peptide on HLA-A*02:01 (human).
T1 peptide: VLDFAPPGA
Kind of assay: killing.

For assay [2], the target named is T1, Wilms tumor protein 1 (WT1) peptide on …. Put plainly: multimer staining.

B1: WT137-45 TCR15.1 (TCR, V domains shown)
Valpha: GQNIDQPTEMTATEGAIVQINCTYQTSGFNGLFWYQQHAGEAPTFLSYNVLDGLEEKGRFSSFLSRSKGYSYLLLKELQMKDSASYLCAVRGINDYKLSFGAGTTVTVRA
Vbeta: DGGITQSPKYLFRKEGQNVTLSCEQNLNHDAMYWYRQDPGQGLRLIYYSQIVNDFQKGDIAEGYSVSREKKESFPLTVTSAQKNPTAFYLCASSRDREQESPLHFGNGTRLTVT
Consider B1, for which the binding result in assay [1] was “recognises”.

B2: WT137-45 TCR10.1 (TCR, V domains shown)
Valpha: KQEVTQIPAALSVPEGENLVLNCSFTDSAIYNLQWFRQDPGKGLTSLLLIQSSQREQTSGRLNASLDKSSGRSTLYIAASQPGDSATYLCAVKETSGSRLTFGEGTQLTVNP
Vbeta: GAGVSQSPRYKVTKRGQDVALRCDPISGHVSLYWYRQALGQGPEFLTYFNYEAQQDKSGLPNDRFSAERPEGSISTLTIQRTEQRDSAMYRCASSLTGSYEQYFGPGTRLTVT
For the molecule B2, the binding result in assay [2] is “recognises”.
